How the values were obtained:
Assay in all cases: pyrophosphate release, enzyme-coupled colorimetric assay
Assay type in all cases: biochemical, Mycolicibacterium smegmatis
Conditions in all cases: 20 mM Tris-HCl pH 7.5, 5 mM MgSO4, 100 mM NaCl, 37°C
[1] = substrate: Nc1nc(=O)n([C@H]2C[C@H](O)[C@@H](COP(=O)(O)OP(=O)(O)OP(=O)(O)O)O2)cc1O
[2] = substrate: Nc1nc(O)nc2c1ncn2[C@H]1C[C@H](O)[C@@H](COP(=O)(O)OP(=O)(O)OP(=O)(O)O)O1
[3] = substrate: O=Cc1cn([C@H]2C[C@H](O)[C@@H](COP(=O)(O)OP(=O)(O)OP(=O)(O)O)O2)c(=O)[nH]c1=O

B1: Msm MazG (Mycolicibacterium smegmatis MC2 155) (protein)
chain: MIVVLVDPRRPALVPVDAVEFLTGDVQYTEEMPVKVPWSLPSARPAYDGEDAPVLLSSDPEHPVVKARLAAGDRLIAAPEPQPGERLVDAVALMDKLRTSGPWESEQTHDSLRRYLLEETYELFDAVRSGNADELREELGDVLLQVLFHARIAEDAPHHPFSIDDVADALVRKLGNRVPAVLAGESISLDEQLAQWEERKAQEKKVKARASSMDDVPTGQPALALAQKVLARVSQAGLPAELIPASLTSVSVSADTDSENELRTAVLEFMDTVREVEAAVAAGRRGEDVPEELDVAPLGVISEDEWRAYWPGAESSASEAEPEE
notes: heterologously expressed, purified to nearly SDS-PAGE homogeneity; strain given for the bacteria, not for the protein
[1]
  Km: 5.6 ± 2.2 µM
  kcat: 0.8 min⁻¹
[2]
  Km: 311 µM
[3]
  Km: 434 ± 82 µM
  kcat: 60 min⁻¹

— publication PMC3855555
